Experimental data: patent US20250353921A1 (ASTRIA THERAPEUTICS, published 2025)
Where “and” joins values, the source holds several entries; their conditions need not be identical. Equal entries are not always repeated.

T1: human OX40 (TNFRSF4, CD134) on cells (human, UniProt P43489 29-277)
T1 sequence: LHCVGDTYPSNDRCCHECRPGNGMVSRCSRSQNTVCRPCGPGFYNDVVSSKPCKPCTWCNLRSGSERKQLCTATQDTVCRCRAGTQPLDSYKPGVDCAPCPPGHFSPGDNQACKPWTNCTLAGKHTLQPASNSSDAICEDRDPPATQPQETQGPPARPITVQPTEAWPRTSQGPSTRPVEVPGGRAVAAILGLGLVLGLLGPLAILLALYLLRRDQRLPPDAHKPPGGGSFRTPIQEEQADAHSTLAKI

T2: human OX40-CRD-avi-his (human, UniProt P43489 29-170, limits assumed)
T2 construct: Only the CRD region of the ECD was used
T2 sequence: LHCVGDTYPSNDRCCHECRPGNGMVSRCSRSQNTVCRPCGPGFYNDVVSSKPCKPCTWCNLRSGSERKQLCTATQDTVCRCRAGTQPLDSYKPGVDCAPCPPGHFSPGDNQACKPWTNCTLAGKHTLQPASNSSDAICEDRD

T3: Human OX40 (Acro Biosystems, catalog NO: OXO-H5224) protein (human, UniProt P43489 29-216)
T3 construct: Bought protein; also called recombinant human OX40 receptor; recombinant human OX40 protein
T3 sequence: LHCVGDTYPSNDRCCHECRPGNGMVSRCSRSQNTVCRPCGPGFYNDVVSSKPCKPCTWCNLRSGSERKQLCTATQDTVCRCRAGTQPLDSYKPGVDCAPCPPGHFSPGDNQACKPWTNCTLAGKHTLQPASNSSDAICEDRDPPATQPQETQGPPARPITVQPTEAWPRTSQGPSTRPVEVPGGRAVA

T4: Human CD32a (167 His), Sino Biological 10374-H08H1 (human, UniProt P12318 34-218)
T4 construct: also called FcγRIIa167H
T4 sequence (looked up): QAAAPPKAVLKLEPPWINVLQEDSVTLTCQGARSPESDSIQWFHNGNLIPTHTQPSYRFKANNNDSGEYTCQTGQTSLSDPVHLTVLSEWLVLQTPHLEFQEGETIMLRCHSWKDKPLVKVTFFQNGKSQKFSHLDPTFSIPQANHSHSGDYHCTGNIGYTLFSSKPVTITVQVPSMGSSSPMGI


Legend:
[1] = target: T1, human OX40 (TNFRSF4, CD134) on cells; assay: cell-based or functional assay
cynomolgus OX40-ECD-his = target: T5, cynomolgus OX40-ECD-his (cynomolgus); assay: SPR Biacore T200, IgG captured by anti-human antibody, antigen as analyte, 1:1 Langmuir
T5 construct: extracellular domain; also called Cyno OX40
Procedure: (§1) The binding kinetics were measured on a Biacore T200 instrument at RT and analyzed with the Biacore T200 Evaluation Software (v3.0). Analyzed data were exported using the Biacore T200 Kinetics Summary software (v3.0). […] Experimental data were processed using a 1:1 Langmuir model with global Rmax.

human OX40-CRD-avi-his [2] = target: T2, human OX40-CRD-avi-his; assay: as above
Procedure: as §1

human OX40-CRD-avi-his [3] = target: T2, human OX40-CRD-avi-his; assay: SPR Biacore T200, ratio of KD values
Procedure: as §1

[4] = target: T1, human OX40 (TNFRSF4, CD134) on cells; assay: cell-based or functional assay; remark: listed apart in the source
[5] = target: T1, human OX40 (TNFRSF4, CD134) on cells; assay: cell-based or functional assay; remark: listed apart in the source
[6] = target: T1, human OX40 (TNFRSF4, CD134) on cells; assay: flow cytometry on Jurkat-NF-κB-OX40 cells, detection with PE anti-human IgG Fc, occupancy in % of the saturating dose; in the presence of 5 µg/ml OX40L; time point not stated on the sheet
[7] = target: T1, human OX40 (TNFRSF4, CD134) on cells; assay: cell-based or functional assay; remark: listed apart in the source
[8] = target: T1, human OX40 (TNFRSF4, CD134) on cells; assay: cell-based or functional assay; remark: listed apart in the source
[9] = target: T1, human OX40 (TNFRSF4, CD134) on cells; assay: cell-based or functional assay; remark: listed apart in the source
[10] = target: T1, human OX40 (TNFRSF4, CD134) on cells; assay: flow cytometry on Jurkat-NF-κB-OX40 cells, detection with PE anti-human IgG Fc, occupancy in % of the saturating dose; in the presence of 0.3 µg/ml OX40L; time point not stated on the sheet
[11] = target: T1, human OX40 (TNFRSF4, CD134) on cells; assay: flow cytometry on Jurkat-NF-κB-OX40 cells, detection with PE anti-human IgG Fc, occupancy in % of the saturating dose; in the presence of 0.07 µg/ml OX40L; time point not stated on the sheet
[12] = target: T1, human OX40 (TNFRSF4, CD134) on cells; assay: flow cytometry on Jurkat-NFκB (OX40) cells, detection with anti-human IgG Fc-AF647
[13] = target: T3, Human OX40 (Acro Biosystems, catalog …); assay: SPR Biacore 8K+
Procedure: Measurements were performed on a Biacore 8K+ instrument (Cytiva Life Sciences) the Biacore 8K+ Control Software and analyzed with the Biacore Insight Evaluation Software (v3.0). […] After each binding event, baseline levels were restored using a regeneration solution on both flow-paths. HBS-EP+pH 7.4 solution were used as running buffer. Data was analyzed using the SCK evaluation method of the Biacore Insight Evaluation Software and kinetic parameters were determined using the 1:1 binding fitting model.

[14] = target: Human CD64 (FcγRI), Sino Biological 10256-H08H (human, UniProt P12314 16-288); assay: SPR Biacore 8K+, ratio of KD values
Procedure: (§2) Measurements were performed on a Biacore 8K+ instrument (Cytiva Life Sciences) using the Biacore 8K+ Control Software and analyzed with the Biacore Insight Evaluation Software (v3.0). […] After each binding event, baseline levels were restored using a regeneration solution on both flow-paths. HBS-EP+pH 7.4 solution were used as running buffer. Data was analyzed using the MCK evaluation method of the Biacore Insight Evaluation Software and kinetic parameters were determined using the 1:1 binding and steady-state affinity methods.
(§3) Each measurement is the mean of three identical replicate conditions.

[15] = target: T6, Human CD16a (F176V), Sino Biological 10389-H08H1 (human, UniProt P08637 17-208); assay: SPR Biacore 8K+, ratio of KD values
T6 construct: also called FcγRIIIa176V
Procedure: as §2, §3

[16] = target: T4, Human CD32a (167 His), Sino Biological …; assay: SPR Biacore 8K+, ratio of KD values
Procedure: as §2, §3

[17] = target: T7, Human CD16a (176F), Sino Biological 10389-H08H (human, UniProt P08637 17-208); assay: SPR Biacore 8K+, ratio of KD values
T7 construct: also called FcγRIIIa176F
Procedure: as §2, §3

[18] = target: T8, Human CD16b (NA2 allotype), Sino Biological 11046-H08H (human, UniProt O75015 17-200); assay: SPR Biacore 8K+, ratio of KD values
T8 construct: also called FcγRIIIb
T8 sequence (O75015 17-200 N65S limits assumed): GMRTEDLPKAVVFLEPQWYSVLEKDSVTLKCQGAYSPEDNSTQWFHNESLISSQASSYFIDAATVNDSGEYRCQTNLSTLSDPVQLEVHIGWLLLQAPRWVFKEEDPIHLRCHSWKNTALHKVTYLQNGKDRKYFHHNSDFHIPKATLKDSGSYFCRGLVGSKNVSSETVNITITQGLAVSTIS
Procedure: as §2, §3

T7 sequence (P08637 17-208 limits assumed): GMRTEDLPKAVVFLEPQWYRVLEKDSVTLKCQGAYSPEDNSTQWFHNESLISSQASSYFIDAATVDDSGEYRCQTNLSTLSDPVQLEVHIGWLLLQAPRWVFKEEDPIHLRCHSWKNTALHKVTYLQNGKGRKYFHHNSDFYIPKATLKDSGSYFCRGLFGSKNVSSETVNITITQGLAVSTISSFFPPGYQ
Chain of Human CD64 (FcγRI), Sino Biological 10256-H08H (P12314 16-288 limits assumed): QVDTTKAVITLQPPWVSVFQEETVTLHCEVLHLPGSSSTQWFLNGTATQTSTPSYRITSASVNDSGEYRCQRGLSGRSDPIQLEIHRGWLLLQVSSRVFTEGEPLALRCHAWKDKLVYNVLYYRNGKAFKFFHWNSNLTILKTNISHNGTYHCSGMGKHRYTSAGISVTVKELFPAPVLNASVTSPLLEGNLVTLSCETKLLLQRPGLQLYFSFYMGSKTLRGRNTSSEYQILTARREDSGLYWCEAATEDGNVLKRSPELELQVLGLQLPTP
T6 sequence (P08637 17-208 F176V limits assumed): as the sequence (P08637 17-208 limits assumed) above, with F160V counted along it

Kd (cynomolgus OX40-ECD-his)	Kd (human OX40-CRD-avi-his [2])	koff (human OX40-CRD-avi-his [2])	kon (human OX40-CRD-avi-his [2])	EC50, inhibition of T cell proliferation [4]	ADCC EC50, activated T cells [5]	EC50 (read off the curve) [6]	ADCC EC50, in vitro differentiated Tregs [7]	ADCC EC50, regulatory T cells (LDH release) [8]	Fold diff to MAB10, ADCC EC50, regulatory T cells [8]	average proliferation index (Av), coated T cell agonism assay [9]	EC50 (read off the curve) [10]	EC50 (read off the curve) [11]	EC50 (read off the curve) [12]	fold increase in binding affinity against GBR830 [13]	Binder	other results
557 nM	6 nM	0.00163 s⁻¹	274000 M⁻¹ s⁻¹	0.17 nM and 0.24 ug/ml	0.026 nM and 0.004 ug/ml	~0.4 nM	0.089 nM and 0.015 µg/mL	0.28 nM	8.25 fold	0.97	~0.2 nM	~0.2 nM	~0.09 µg/mL	8 fold	MAB1 IgG1 (antibody, Human IgG1, kappa) heavy: not shown light: EIVLTQSPATLSLSPGERATLSCRASSSVSYMHWYQQKPGQAPRPWIYATSNRATGIPARFSGSGSGTDYTLTISSLEPEDFAVYYCQQFGAWPWTFGQGTKVEIKRTVAAPSVFIFPPSDEQLKSGTASVVCLLNNFYPREAKVQWKVDNALQSGNSQESVTEQDSKDSTYSLSSTLTLSKADYEKHKVYACEVTHQGLSSPVTKSFNRGEC	fold decrease in ADCC of activated T cells against KHK4083 [1]: 3 fold; koff (cynomolgus OX40-ECD-his): 0.0405 s⁻¹; kon (cynomolgus OX40-ECD-his): 72700 M⁻¹ s⁻¹; fold increase in affinity (KD GBR 830 / KD MAB1) (human OX40-CRD-avi-his [3]): 13.4 fold; Fold change to GBR 830, proliferation EC50 [4]: 33 fold; Fold Change to GBR 830, ADCC EC50, activated T cells [5]: 3.25 fold; Fold Change to GBR 830, ADCC EC50, Tregs [7]: 74 fold
–	–	–	–	–	–	~0.7 nM	–	2.31 nM	–	–	~0.4 nM	~0.3 nM	–	8 fold	MAB10 (antibody, human IgG1, kappa, MAB1 with M252Y, S254T and T256E (EU numbering) in the IgG1 Fc; also called MAB1 Heavy Chain + YTE) heavy: QVTLKESGPALVKPTQTLTLTCSFSGFSLSTSGMGVGWIRQPPGKALEWIAHIWWDDDKYYNTALKTRLTISKDTSKNQVVLTMTNMDPVDTATYYCARIDWDGFAYWGQGTLVTVSSASTKGPSVFPLAPSSKSTSGGTAALGCLVKDYFPEPVTVSWNSGALTSGVHTFPAVLQSSGLYSLSSVVTVPSSSLGTQTYICNVNHKPSNTKVDKKVEPKSCDKTHTCPPCPAPELLGGPSVFLFPPKPKDTLYITREPEVTCVVVDVSHEDPEVKFNWYVDGVEVHNAKTKPREEQYNSTYRVVSVLTVLHQDWLNGKEYKCKVSNKALPAPIEKTISKAKGQPREPQVYTLPPSRDELTKNQVSLTCLVKGFYPSDIAVEWESNGQPENNYKTTPPVLDSDGSFFLYSKLTVDKSRWQQGNVFSCSVMHEALHNHYTQKSLSLSPGK light: EIVLTQSPATLSLSPGERATLSCRASSSVSYMHWYQQKPGQAPRPWIYATSNRATGIPARFSGSGSGTDYTLTISSLEPEDFAVYYCQQFGAWPWTFGQGTKVEIKRTVAAPSVFIFPPSDEQLKSGTASVVCLLNNFYPREAKVQWKVDNALQSGNSQESVTEQDSKDSTYSLSSTLTLSKADYEKHKVYACEVTHQGLSSPVTKSFNRGEC	EC50 (inhibition) of NFκB signaling, Jurkat-NFκB-OX40 cells, 0.07 µg/mL OX40L [1]: 0.79 nM; EC50 (inhibition) of NFκB signaling, Jurkat-NFκB-OX40 cells, 5 µg/mL OX40L [1]: 4.59 nM; fold-change of KD relative to MAB1 [14]: 1.6 fold; fold-change of KD relative to MAB1 [15]: 2.7 fold; fold-change of KD relative to MAB1 [16]: 3.1 fold; fold-change of KD relative to MAB1 [17]: 3 fold; fold-change of KD relative to MAB1 [18]: 4.3 fold
3040 nM	80.4 nM	0.00654 s⁻¹	81300 M⁻¹ s⁻¹	5.67 nM and 0.833 ug/ml	0.078 nM and 0.13 ug/ml	–	0.833 nM and 0.121 µg/mL	2.25 nM	1.03 fold	0.98	~0.7 nM	~0.5 nM	~0.3 µg/mL	–	GBR 830 (telazorlimab) (antibody, human IgG1, kappa, IgG1; also called Antibody 830; ISB830) heavy: not shown light: EIVLTQSPATLSLSPGERATLSCRASSSVSYMHWYQQKPGQAPRPWIYATSNRATGIPARFSGSGSGTDYTLTISSLEPEDFAVYYCQQWSSNPWTFGQGTKVEIKRTVAAPSVFIFPPSDEQLKSGTASVVCLLNNFYPREAKVQWKVDNALQSGNSQESVTEQDSKDSTYSLSSTLTLSKADYEKHKVYACEVTHQGLSSPVTKSFNRGEC	–
